Experimental data taken from the nanobody polyreactivity screen of Harvey et al. (2022).

Assay: yeast display, Sf9 membrane polyspecificity reagent, FACS + sequencing; frameworks hold sequencing errors
Method in brief: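 Genes from sorted yeast were amplified by colony PCR, read by MiSeq 2 × 250 sequencing and filtered on CDR length. These cells carried a synthetic nanobody library in Saccharomyces cerevisiae BJ5465 and were sorted by FACS into low and high (top ~1%) gates on anti-HA and streptavidin fluorescence. Polyreactivity is labelled according to the gate of origin.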

| Sequence | polyreactivity (PSR sort gate) |
| --- | --- |
| QVQLVESGGGLVQAGGSLRLSCAASGITFTYNAMGWYRQAPGKERELVASITLSGGNTYYADSVTGRFTISRDNAKNTVYLQMNSLKPEDTAVYYCAADDRGSSYGHFTVEYGYWGQGTQVTVSS | low polyreactivity |
| QVQLVESGGGLVQAGGSLRLSCAASGRIFYAYVMGWYRQAPGKERELVAAITSSGGSTYYADSVKGRFTISRDNAKNTVYLQMNSLKPEDTAVYYCNARSYPRWLRYDYWGQGTQVTVSS | low polyreactivity |
| QVQLVESGGGLVQAGGSLRLSCAASGSTFRQYAMGWSRQAPGKERELVAAISSSGGSTYYADSVKGRFTISRDNAKNTVYLQMNSLKPEDTAGYYCNARLYGSASWGQPKEYDYWGQGTQVTVSS | low polyreactivity |
| QVQLVESGVGLVQAGGSLRLSCAASGLIFYKYAMGWYRQAPGKERELVAAITRGGGSTSYADSVKGRFTISRDNAKNTVYLQMNSLKPEDTAVYYCNAAPYTRALQGEFDYWGQGTQVTVSS | high polyreactivity |
| QVQLVESGGGLVQAGGSLRLSCAASGRIFGHNAMGWYRQAPGKERELVATISSGVRTNYADSVKGRFTISRDNAKNTVYLQMNSLKPEDTAVYYCATKTYQFGYSSYYYWGQGTQVTVSS | high polyreactivity |
| QVQHEESGGGLVQAGGSLRLSCAASGRTFLQYAMGWYRQAPGKERELVDAITTSGGDTYYSDSVKGRFTISRDNAKNTVYLQMKSLKPEDTAVFYCNADFRVYIPHVPYLVDFYYWGQGTQVTVSS | low polyreactivity |
| QVQLVESGGGLVQAGGSLRLSCAASGFTFFLYAMGWYRQAAGKERELGAAINSRGGSTYYADSVKGRFTLSRDNAKNTVYLQMNSLKPEDTAVYYCAAYIPRSYCGYDYGGQGTQVTVSS | high polyreactivity |
| QVQLVESGGGLVQAGGSLRLSCAASGSIFYLYAMGWYRQAPGKERELVAAISSGGSTNYADSVKGRFTISRDNAKNTVYLQMNSLKPEDTAVYYCAAGYKRLHWPKSDSFHGMYYWGQGTQVTVSS | low polyreactivity |
| QVQLVESGGGLVQAGGSLRLSCAASGSIFWRNVMGWYRQAPGKERELVAAISSGGSTYYADSVKGRFTISRDNAKNTVYLQMNSLKPEDTAVYYCAAPRYDYWGQGTQVTVSS | high polyreactivity |
| QVQLVESGGGLVQAVGSLRLSCAASGSTFRGYTMGWYRQEPGKERELVSAINWSGGDTYYADSVKGRFTISRDNAKNTVYLQMNSLKPEDTAVYYCNTRHTYPQSFILRRDYWGQGTQVTVSS | low polyreactivity |
| QVQLVESGGGLVQAGGSLRLSCAASGGTLYYYAMGWSRQAPGKERELVADITNSGSTNYADSVKGRFTISRDNAKNTVYLQMNSLKPEDTAVYYCAAYSWSWYHPEFDYWGQGTQVTVSS | high polyreactivity |
| QLQLVESGGGLGQSGGSIRLSCAASGFIFPVYTMGRSRQAPGKERELVAAITQIGGSTHYADSVKGRFTISRDNAKNTVYLQMNSLKPEDTAVYYCNAVPSYGTEYDYWGQGTQVTVSS | low polyreactivity |
| QVQLVESGGGLVQAGGSLRLSCAASGLILSSNAMGWYRQAPGKERELVAAITWDGDRTYADSVKGRFTISRDNAKNTVYLQMNSLKPEDTAVYYCAADKQYSWYDWSYDYWGQGTQVTVSS | low polyreactivity |
| QVQLVESGGFLVQAGGSLRLTCAASGSIIENNAMGWSRQAPRKERELVDAISSDDTTNYADSVKGRFTISRDNAKNTVYLLMNRLLPVDTAVYYCNVDSGPEDKTVTYDYWGQGTQVTVSS | low polyreactivity |
| QVQLVESGGGLVHAGGSLRLSCAASGRIFYKYAMAWYRQAPGKERELVAAISTRGGSTYYADSVKWRFTISRDNAKNTVYLQMNSLKPEDTAVYYCAALSAYGYDYWGQGTQVTVSS | high polyreactivity |
| QVQLVESGGGLVQAGGSLRLSCAASGSTFSFYAMGWYRQAPGKERELVAVFTRGGSTYYADSVKGRFTISRDNAKNTVYLQMNSLKPEDTAVYYCAARSTSNGQRSLHYGYWGQGTQVTVSS | low polyreactivity |
| QVQLVESGGGLVQAGGSLRLSCAASGNIFSTYAMGWYRQAPGKERELVAAISKSGGRTYYADSVKGRFTISRDNAKNTVYLQMNSLKPEDTAVYYCNKRYQHGISFGYGYWGQGTQVTVSS | high polyreactivity |
| QVHHVESGGGLVQAGGSLRLSCAASGFIFVHNAMGCYSQAPGKERELVAAIRSRGGSTYYADSVKGRFTISRDNAKNTVYLQMNRLKPEDTAGYYCAADGAVVSSSRKFGYWGQGTQVTVSS | low polyreactivity |
| QVQLVESGGGLVQAGGSLRLSCAASGRILVRNAMGRYRQAPGKERELVAVIRWSGGRTSYADSVKGRFTISRDNAKNTVYLQMNSLKPEDTAVYYCNKGGSYPTSNYKSYWVGVDYWGQGTQVTVSS | low polyreactivity |
| QVQLVESGGGLVQAGGSLRLSCAASGSIFGFYMGWYRQAPGKERELVAAISGSGGNTYYADSVKGRFTISRDNAKNTVYLQMNSLKPEDTAVYYCAVRYPGSRYLISKNGYWGQGTQVTVSS | high polyreactivity |
| QVQLVESGGGLVQAGGSLRLSCAASGRIFQGNAMGWYRQAPRKERELVAAISWRGGRTYYADSVKGRFTISRAYAKNTVYLQMNSLKPEDTAVYYCAAKAYREDEGYWGQGTQVTVSS | high polyreactivity |
| QVQLEESGGGLVQAGGSLRLSCAASGFIFAFNAMGWYRQAPGKEREMVATISWNDGGTYYADSVKGRFTISRDNAKNTVYLEMNSLKPEDTAVYYCAADWYLYLDDKYDYWGQGTQVTVSS | low polyreactivity |

| Sequence | polyreactivity (PSR sort gate) |
| --- | --- |
| QVQHVESGGGLVQAGGSRRLSCAASGSTFYGYAMGWYRQAPGKEREFVAAITTSGGSTYYADSVKGRFTISRDNANNTVYLQMNSLKPEDTAVYYCAADGFYYDDGYWGQGTQVTVSS | low polyreactivity |
| QVQLVESGGGLVQAGGSLRLSCAASGSTFTYYAMGWYRQAPGKERELVADISRDGGSTYYADSVKGRFTISRDNAKNTVNLQMNSLKPEDTAVYYCATDMVYKYDYWGQGTQVTVSS | low polyreactivity |
| QVQLVESGGGLVQAGGILRLSCAASGRIFQPYAMGWYRQAPGKERELVAAISRGGTTYYADSVKGRFTISRDNAKNTVYLQMNSLKTEDTAVYYCAAPSYYRYDYWGQGTQVTVSS | high polyreactivity |
| QVQLVESGGGLVQAGGSLRLSCAASGSIFRVYAMGWYRQAPGKERELVASISRRGGSTYYADSVKGRFTISRDNAKKTVYLQMNSLKPEETAVYYFAAEFVIGGHGYDYWGQGTQVTVSS | high polyreactivity |
| QVQHVESGGGLVQAGGSLRLSCAASGRTFRGYAMGWYRQAPGKERELVASISASGVRTYYADSVKGRFTISRDNAKNTVYLQMNSLKPEDTAVYYCNARHGGWYSVYYYWGQGTQVTVSS | high polyreactivity |
| QVQLVESGGGLVQAGGSLRLSCAASGSIRVTNDMGWYRQATGKERELVAAITSIGGSTNYADSVKGRFTISRDNAKNPVYLQMNSLKPEDTAVYYCNVYLGILYKYDYWGQGTQVTVSS | low polyreactivity |
| QVQLVESGGALVQAGGRLRLSCAASGSTFTYNAMGWYRQAPGKERELVASISSGTTTYYADSVKGRFTISRDNAKNTVSLQMNSLKPEDTAVYDCAVDSWSRVQGWLAHNYDYWGQGTQVTVSS | low polyreactivity |
| QVQLVESGGGLVQAGGSLRLSCAASGRIFDGYAMGWYRQAPGKERELVAAISSRGGRTYYADSVKGRFTISRDNAKNTVYLQMNSLKPEDTAVYYCAADDPYGEGDYWGQGTQVTVSS | low polyreactivity |
| QVQLVESGGGLVQAGGSLRLSCAASGSIFFLYTMGWYRQARGKERELVAAITRNGGSTYYADSVKGRFTISRDNAKNTVYLQMNSLKPEDTAVYYCNALRWYSYNYWGQGTQVTVSS | high polyreactivity |
| QVQLVESGGGLVQAGGSLRLSCAASGRTLAFYAMGWYRQAPGKERELVAAITRGGGTYYADSVKGRFTISRDNAKNTVDLQMNSLIPEDTAVYYCNADSGFRWGAFDYWGQGTQLTVSS | low polyreactivity |
| QVQLVESGGGLVQAGGSLRLSCAASGSIFLVNAMGWYRQAPGKERELVAAITWIGGSTYYADSVKGRFTISRDNAKNTVYLQMNSLKPEDTAVYYCAAYGKRLGGGGYYWGQGTQVTVSS | high polyreactivity |
| QVQLVESGGGVVQAGGSLRLSCAASGLIFYLYAMGWYRQAPGKERELVAGITSGGGSTYYADSVKGRFTISRDNAQNTVYLQMNSLKPEDTAVDDCAARLVLYITVVYEDDYWGQGTQGTVSS | low polyreactivity |
| QVQLVESGGGLVQAGGSLRLSCAASGRTFINYAMGWYRQAPGKERELVAAITTGGRTNYADSVKGRFTISRDNAKHTVYLQMNSLKPEDTAVYYCAADRYYWGRYTLNYWGQGTQVTVSS | low polyreactivity |
| QVQLVESGGGLVQAGGSLRLSCAASGSTFWLYAMGWYREAPGKERELVATISERGGSTYYADSVKGRFTISRDYAKNTVYFQMNSLKPEDTAVYYCAADQFHYPRGRRYDYWGQGTQVTVSS | low polyreactivity |
| QVQLVESGGGLVQAGGSLRLSCAASGFIFTKYTKGWYRPAPGTERELVAAIRSDGVRTYYADSVKGRFTISRDNAKNTVYLQMNSLKPEDTAVYYCAAYKAVPHYYYWGQGTQVTVSS | high polyreactivity |
| QVQLVESGGGLVQAGGSLRLSCAASGSIFLKYAMGWYRQAPGKERELVATISRGGSTNYADSVKGRFTISRDNAKNTVYLLMNSLKPEYTAVYYCAAKYGRPYGTYGYWGQGTQVTVSS | high polyreactivity |
| QVQLVESGGGLVQAGGSLRLSCAASGSTLWIYAMGWYRQAPGKERELVAAISWSTGRTYYADSVKGRFTISRDNAKNTVYLQMNSLKPVDTAVYYCNAGPQHNTLKLFYYWGQGTQVTVSS | low polyreactivity |
| QVQLVESGGGLVQAGGSLRLSCAASGSIFTVNAMGWYRQAPGKEREFVAAITGGGTSTYYADSVKGRFTISRDNAKNTVYLQMNSLKPEDTAVYYCAATTYHYSPTYGYWGQGTQVTVSS | low polyreactivity |
| QDQLVESGGGLVQAGGSLPLSCAASGFTYSSYAMGWYRHAPGKERELVATISRSGSTTYYADSVKGRFTISRDNAKNTVYFQMNSLKPEDTAVYYCAKAYYPGGYWGQGTQVTVSS | high polyreactivity |
| QVQLVESGGGLVQAGGSLRLSCAASGFTFGRYAMGWYRQAPGKERELVAAITRGSGGSYYADSVKGRFTISRDIAKNTVYLQMNSLKPDDTAVYYCATGSRSRGALRYAHFDYWGQGTQVTVSS | high polyreactivity |
| QDQLVESGGGLVQAGGSLRLICAASGNTLGYYAMVCYRQATGKERELVATISDDGTTYYADSVKGLFTISRDNAKNSVYLQMNSLKPEDTAVYYCATDGSAQYSMDYWGQGTQVTVSS | low polyreactivity |
